Experimental findings from paper PMC12800425, “De novo cysteine biosynthesis in Pseudomonas aeruginosa: Characterization of the two main cysteine synthase isoforms” (iScience, 2025) are described below.

A word on the Km: it is the concentration of substrate that gives half-maximal velocity. One may read the kcat as the number of substrate molecules converted per active site and unit of time at saturation. What is called kcat/Km is the turnover number divided by the Michaelis constant. Broadly, the stoichiometry N is a count of units in the complex or per binding partner.

The target of data set [1] is T1, PA0932 (PaCysM, cysteine synthase B) (Pseudomonas aeruginosa, UniProt Q9I526).
T1 construct: gene cysM; recombinant, N-terminal His-tag with TEV cleavage site; homodimer
T1 sequence (Q9I526 1-299): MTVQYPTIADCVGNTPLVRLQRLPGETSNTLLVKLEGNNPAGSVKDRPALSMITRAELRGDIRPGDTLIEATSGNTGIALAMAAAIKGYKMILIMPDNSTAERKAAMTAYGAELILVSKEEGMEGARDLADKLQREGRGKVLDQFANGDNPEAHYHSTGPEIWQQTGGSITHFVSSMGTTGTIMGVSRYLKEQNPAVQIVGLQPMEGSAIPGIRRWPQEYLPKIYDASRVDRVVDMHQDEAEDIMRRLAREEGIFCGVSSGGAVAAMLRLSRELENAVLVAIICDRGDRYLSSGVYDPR
Briefly: ninhydrin steady-state kinetics, global fit (Km […]); substrate inhibition Ki. In kind it is biochemical.

The target in data set [2] is T2, PA2709 (PaCysK, cysteine synthase A) (Pseudomonas aeruginosa, UniProt Q9I0D3).
T2 construct: gene cysK; recombinant, N-terminal His-tag with TEV cleavage site; homodimer
T2 sequence (Q9I0D3 1-324): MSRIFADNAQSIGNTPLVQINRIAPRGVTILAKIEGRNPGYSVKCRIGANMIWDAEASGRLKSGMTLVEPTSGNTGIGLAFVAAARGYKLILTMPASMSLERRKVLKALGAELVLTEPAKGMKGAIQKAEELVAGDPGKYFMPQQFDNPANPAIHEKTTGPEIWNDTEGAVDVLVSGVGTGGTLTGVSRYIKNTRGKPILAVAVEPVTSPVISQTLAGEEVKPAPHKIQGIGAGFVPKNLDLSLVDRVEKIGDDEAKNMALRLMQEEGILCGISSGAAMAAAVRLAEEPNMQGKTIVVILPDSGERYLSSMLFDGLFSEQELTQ
Briefly: UV-vis absorption ([…] nm), near-UV circular dichroism, fluorescence. In kind it is binding. (In general: CD spectra are sensitive to the conformation of chiral molecules.)

Data set [3] has as its target T1, PA0932 (PaCysM, cysteine synthase B). The description is as above. In kind it is binding.
Substrate in data set [4]: CC(=O)OC[C@H](N)C(=O)O
Briefly: UV-vis absorption of PLP intermediates; steady-state kinetics with bisulfide electrode (Km). In kind it is biochemical, Pseudomonas aeruginosa. The following applies: pyridoxal […]'-phosphate (PLP) active site; forms alpha-aminoacrylate intermediate with PLP; pH 7.0; 25.0 °C.

Data set [5] concerns the molecule itself. Briefly: SEC-MALS; Agilent GPC/SEC, AdvanceBio SEC column (300 Å), dual-angle light-scattering detector, BSA as calibrant; protein loaded at 1 mg/mL in buffer H (100 mM HEPES, pH 7.0), 20 °C, 1 mL/min. A general note: SEC sorts molecules by how far they enter the pores of the column.
Substrate in data set [6]: CC(=O)OC[C@H](N)C(=O)O
Briefly: UV-vis absorption of PLP intermediates; steady-state kinetics, ninhydrin assay with thiosulfate (Km). Conditions: pyridoxal […]'-phosphate (PLP) active site; forms alpha-aminoacrylate intermediate with PLP; pH 7.0; 25.0 °C. In kind it is biochemical, Pseudomonas aeruginosa.

Turning to `O=S(O)(O)=S` [thiosulfate], in data set [1], the Ki is 970 ± 830 µM. In the case of `Cc1ncc(COP(=O)(O)O)c(C=O)c1O` [PLP, pyridoxal 5′-phosphate], the “UV-vis absorption (411 nm), near-UV circular dichroism, fluorescence” value in data set [2] is given as “absorption of the PLP cofactor bound as an internal aldimine to the catalytic lysine”. Further, the “UV-vis absorption (413 nm), near-UV circular dichroism, fluorescence” value in data set [3] was “absorption of the PLP cofactor bound as an internal aldimine to the catalytic lysine”.

B1: PA2709 (PaCysK, cysteine synthase A) (Pseudomonas aeruginosa PAO1) (protein)
chain: T2 sequence (Q9I0D3 1-324)
notes: recombinant, N-terminal His-tag with TEV cleavage site; homodimer
Consider B1, for which, in data set [4], the Km came to 1100 ± 100 µM, the kcat came to 102 ± 3 s⁻¹ and the kcat/Km turned out to be 90000 ± 9000 M⁻¹ s⁻¹.

B2: Cysteine synthase A (PA2709, PaCysK) from Pseudomonas aeruginosa (enzyme, Pseudomonas aeruginosa PAO1, UniProt Q9I0D3 1-324, looked up)
chain: T2 sequence (Q9I0D3 1-324)
modifications: PLP cofactor bound as an internal aldimine to the catalytic lysine (Lys44, based on sequence alignments)
notes: Cysteine synthase A (CysK, PA2709) of P. aeruginosa PAO1; gene optimised for E. coli, synthesised and cloned between NdeI and BamHI into pET28a-TEV; calculated mass for a dimer 69 kDa; also called O-acetylserine sulfhydrylase; OASS-A; not shown: His6, N-terminal, cleaved
As to B2, the “stoichiometry N” value in data set [5] was 2.

B3: PA0932 (PaCysM, cysteine synthase B) (Pseudomonas aeruginosa PAO1) (protein)
chain: T1 sequence (Q9I526 1-299)
notes: as for B1
Regarding B3, in data set [6], the Km amounted to 2700 ± 600 µM, the kcat is 209 ± 25 s⁻¹ and the kcat/Km turned out to be 79000 ± 20000 M⁻¹ s⁻¹.

B4: Cysteine synthase B (PA0932, PaCysM) from Pseudomonas aeruginosa (enzyme, Pseudomonas aeruginosa PAO1, UniProt Q9I526 1-299, looked up)
chain: T1 sequence (Q9I526 1-299)
modifications: PLP cofactor bound as an internal aldimine to the catalytic lysine (Lys45, based on sequence alignments)
notes: Cysteine synthase B (CysM, PA0932) of P. aeruginosa PAO1; gene optimised for E. coli, synthesised and cloned between NdeI and BamHI into pET28a-TEV; calculated mass for a dimer 65 kDa; also called OASS-B; S-sulfocysteine synthase; not shown: His6, N-terminal, cleaved
Consider B4, for which the “stoichiometry N” value in data set [5] is 2.
